Where two headings read alike, the source gives them in different places. Values belong to the binder of their own block, whether it stands above or below them.
How the values were obtained:
Assay in all cases: two-hybrid library CCmax;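 also: natural log of median RNA to DNA barcode read ratio; higher means stronger binding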
4H497-AA = molecular target: T1, 4H497-AA
T1 chain: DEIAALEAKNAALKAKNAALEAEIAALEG

4H971-AA = molecular target: T2, 4H971-AA; details: mean of both orientations
T2 chain: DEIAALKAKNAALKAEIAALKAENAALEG

4H656-AA = molecular target: T3, 4H656-AA; details: mean of both orientations
T3 chain: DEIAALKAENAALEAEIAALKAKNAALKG

4H675-AA = molecular target: T4, 4H675-AA
T4 chain: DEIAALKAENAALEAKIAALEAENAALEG

4H891-AA = molecular target: T5, 4H891-AA; details: mean of both orientations
T5 chain: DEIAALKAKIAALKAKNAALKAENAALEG

4H710-AA = molecular target: T6, 4H710-AA; details: mean of both orientations
T6 chain: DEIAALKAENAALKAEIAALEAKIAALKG

4H485-AA = molecular target: T7, 4H485-AA; details: mean of both orientations
T7 chain: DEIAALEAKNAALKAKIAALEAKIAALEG

4H536-AA = molecular target: T8, 4H536-AA; details: mean of both orientations
T8 chain: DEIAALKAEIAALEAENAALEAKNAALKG

4H629-AA = molecular target: T9, 4H629-AA; details: mean of both orientations
T9 chain: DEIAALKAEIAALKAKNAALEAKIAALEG

4H570-AA = molecular target: T10, 4H570-AA; details: mean of both orientations
T10 chain: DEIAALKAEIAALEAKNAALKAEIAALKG

4H930-AA = molecular target: T11, 4H930-AA; details: mean of both orientations
T11 chain: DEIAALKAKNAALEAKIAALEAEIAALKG

4H850-AA = molecular target: T12, 4H850-AA; details: mean of both orientations
T12 chain: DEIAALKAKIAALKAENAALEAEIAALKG

4H745-AA = molecular target: T13, 4H745-AA; details: mean of both orientations
T13 chain: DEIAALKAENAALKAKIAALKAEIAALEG

4H3753-AA = molecular target: T14, 4H3753-AA
T14 chain: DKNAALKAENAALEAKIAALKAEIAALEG

4H3865-AA = molecular target: T15, 4H3865-AA; details: mean of both orientations
T15 chain: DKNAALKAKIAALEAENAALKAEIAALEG

4H797-AA = molecular target: T16, 4H797-AA; details: mean of both orientations
T16 chain: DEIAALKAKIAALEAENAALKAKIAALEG

4H94-AA = molecular target: T17, 4H94-AA; details: mean of both orientations
T17 chain: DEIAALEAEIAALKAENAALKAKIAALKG

4H458-AA = molecular target: T18, 4H458-AA; details: mean of both orientations
T18 chain: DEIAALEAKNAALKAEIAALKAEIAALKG

4H909-AA = molecular target: T19, 4H909-AA; details: mean of both orientations
T19 chain: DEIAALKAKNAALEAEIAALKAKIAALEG

4H3410-AA = molecular target: T20, 4H3410-AA
T20 chain: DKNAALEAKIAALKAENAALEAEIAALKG

4H3590-AA = molecular target: T21, 4H3590-AA; details: mean of both orientations
T21 chain: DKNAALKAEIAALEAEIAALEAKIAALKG

4H3697-AA = molecular target: T22, 4H3697-AA; details: mean of both orientations
T22 chain: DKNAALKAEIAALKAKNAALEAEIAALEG

4H605-AA = molecular target: T23, 4H605-AA; details: mean of both orientations
T23 chain: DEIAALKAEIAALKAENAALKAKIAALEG

4H794-AA = molecular target: T24, 4H794-AA; details: mean of both orientations
T24 chain: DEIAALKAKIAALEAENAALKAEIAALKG

4H566-AA = molecular target: T25, 4H566-AA; details: mean of both orientations
T25 chain: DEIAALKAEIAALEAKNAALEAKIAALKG

4H881-AA = molecular target: T26, 4H881-AA; details: mean of both orientations
T26 chain: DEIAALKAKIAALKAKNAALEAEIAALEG

4H3655-AA = molecular target: T27, 4H3655-AA
T27 chain: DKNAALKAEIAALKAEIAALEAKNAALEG

4H3921-AA = molecular target: T28, 4H3921-AA
T28 chain: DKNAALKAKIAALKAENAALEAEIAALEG

4H48-AA = molecular target: T29, 4H48-AA; details: mean of both orientations
T29 chain: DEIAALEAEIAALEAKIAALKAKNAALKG

4H906-AA = molecular target: T30, 4H906-AA; details: mean of both orientations
T30 chain: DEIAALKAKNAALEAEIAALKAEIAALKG

4H454-AA = molecular target: T31, 4H454-AA; details: mean of both orientations
T31 chain: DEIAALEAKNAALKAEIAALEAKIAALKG

4H678-AA = molecular target: T32, 4H678-AA; details: mean of both orientations
T32 chain: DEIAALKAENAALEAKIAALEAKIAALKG

4H717-AA = molecular target: T33, 4H717-AA; details: mean of both orientations
T33 chain: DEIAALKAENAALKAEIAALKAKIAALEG

4H780-AA = molecular target: T34, 4H780-AA; details: mean of both orientations
T34 chain: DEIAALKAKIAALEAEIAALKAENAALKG

4H429-AA = molecular target: T35, 4H429-AA; details: mean of both orientations
T35 chain: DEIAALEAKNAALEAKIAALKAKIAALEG

4H3844-AA = molecular target: T36, 4H3844-AA; details: mean of both orientations
T36 chain: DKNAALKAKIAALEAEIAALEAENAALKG

4H993-AA = molecular target: T37, 4H993-AA; details: mean of both orientations
T37 chain: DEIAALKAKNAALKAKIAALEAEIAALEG

4H982-AA = molecular target: T38, 4H982-AA
T38 chain: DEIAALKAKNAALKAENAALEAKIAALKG

4H478-AA = molecular target: T39, 4H478-AA
T39 chain: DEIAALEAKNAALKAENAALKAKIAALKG

interaction score (4H497-AA): -1.57 | interaction score (4H971-AA): -2.19 | interaction score (4H656-AA): -1.34 | interaction score (4H675-AA): -0.54
B1: 4H497-AA (peptide)
chain: DEIAALEAKNAALKAKNAALEAEIAALEG

interaction score (4H891-AA): -1.97 | interaction score (4H710-AA): 2.05 | interaction score (4H485-AA): 1.4 | interaction score (4H536-AA): -1.2 | interaction score (4H629-AA): -1.7 | interaction score (4H570-AA): -1 | interaction score (4H930-AA): -1.43 | interaction score (4H850-AA): -2 | interaction score (4H745-AA): -0.67 | interaction score (4H3753-AA): -0.536 | interaction score (4H3865-AA): -1.43 | interaction score (4H797-AA): -1.42 | interaction score (4H94-AA): -1.45 | interaction score (4H458-AA): 1.56 | interaction score (4H909-AA): -0.932
B2: 4H3753-AA (peptide)
chain: DKNAALKAENAALEAKIAALKAEIAALEG

interaction score (4H891-AA): -1.42 | interaction score (4H710-AA): -1.13 | interaction score (4H485-AA): -0.0439 | interaction score (4H536-AA): -1.39 | interaction score (4H629-AA): -1.53 | interaction score (4H570-AA): 2.09 | interaction score (4H930-AA): -1.36 | interaction score (4H850-AA): -0.83 | interaction score (4H3410-AA): 0.0832 | interaction score (4H3590-AA): -0.698 | interaction score (4H745-AA): -0.581 | interaction score (4H3753-AA; mean of both orientations): -1.39 | interaction score (4H3865-AA): 0.873 | interaction score (4H797-AA): -1.22 | interaction score (4H94-AA): 1.3 | interaction score (4H458-AA): 1.79 | interaction score (4H3697-AA): -0.574 | interaction score (4H909-AA): -1.45
B3: 4H3410-AA (peptide)
chain: DKNAALEAKIAALKAENAALEAEIAALKG

interaction score (4H605-AA): -1.25 | interaction score (4H794-AA): -1.61 | interaction score (4H566-AA): -1.03 | interaction score (4H881-AA): -0.202 | interaction score (4H3655-AA): 0.24 | interaction score (4H3921-AA; mean of both orientations): -1.55 | interaction score (4H48-AA): 0.736 | interaction score (4H906-AA): -1.03 | interaction score (4H454-AA): -0.827 | interaction score (4H678-AA): -0.956 | interaction score (4H717-AA): -1.27 | interaction score (4H780-AA): -1.83 | interaction score (4H429-AA): -1.13 | interaction score (4H3844-AA): -1.26 | interaction score (4H993-AA): -1.32
B4: 4H3655-AA (peptide)
chain: DKNAALKAEIAALKAEIAALEAKNAALEG

interaction score (4H605-AA): -0.532 | interaction score (4H794-AA): -0.924 | interaction score (4H566-AA): 0.811 | interaction score (4H881-AA): -0.834 | interaction score (4H3921-AA): -1.67 | interaction score (4H906-AA): -1.62 | interaction score (4H454-AA): 0.521 | interaction score (4H678-AA): -1.4 | interaction score (4H717-AA): -1.37 | interaction score (4H780-AA): -1.71 | interaction score (4H429-AA): -0.196 | interaction score (4H993-AA): 0.874
B5: 4H3921-AA (peptide)
chain: DKNAALKAKIAALKAENAALEAEIAALEG

interaction score (4H982-AA): 0.123
B6: 4H982-AA (peptide)
chain: DEIAALKAKNAALKAENAALEAKIAALKG

interaction score (4H497-AA; mean of both orientations): -0.909 | interaction score (4H971-AA): -1.54 | interaction score (4H656-AA): -0.144 | interaction score (4H675-AA): -1.76 | interaction score (4H478-AA): 0.99
B7: 4H478-AA (peptide)
chain: DEIAALEAKNAALKAENAALKAKIAALKG
